# Columns and labels:
# Experiment in all cases: cell-based or functional assay
# murine IL-12 (mouse) = murine IL-12 (mouse) (UniProt P43431)
# Baboon IL-12 (baboon) = target: Baboon IL-12 (baboon)
# [1] = target: Cyno IL-12 (cynomolgus monkey)
# [2] = target: Rhesus IL-12 (rhesus monkey) (UniProt P48091)
# [3] = target: recombinant human IL-12 (human) (UniProt P29459)
# Sequence of recombinant human IL-12 (human) (P29459 23-219, chain 1 of 2): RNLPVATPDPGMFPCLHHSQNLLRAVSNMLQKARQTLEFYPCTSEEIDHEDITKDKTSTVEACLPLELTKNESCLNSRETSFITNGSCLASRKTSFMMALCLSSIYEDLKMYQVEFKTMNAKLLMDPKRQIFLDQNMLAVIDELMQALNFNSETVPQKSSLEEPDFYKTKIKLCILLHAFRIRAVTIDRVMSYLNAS
# Sequence of recombinant human IL-12 (human) (P29460 23-328, chain 2 of 2, further chain): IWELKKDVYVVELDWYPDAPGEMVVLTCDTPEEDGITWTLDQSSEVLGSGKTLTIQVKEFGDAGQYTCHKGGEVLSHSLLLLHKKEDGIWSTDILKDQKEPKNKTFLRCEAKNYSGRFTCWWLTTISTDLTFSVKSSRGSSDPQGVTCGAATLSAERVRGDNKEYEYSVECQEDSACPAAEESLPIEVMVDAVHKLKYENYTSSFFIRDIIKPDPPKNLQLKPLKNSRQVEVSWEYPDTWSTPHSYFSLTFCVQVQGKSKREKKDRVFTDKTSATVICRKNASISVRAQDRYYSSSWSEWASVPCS
# Sequence of murine IL-12 (mouse) (P43431 23-215, chain 1 of 2): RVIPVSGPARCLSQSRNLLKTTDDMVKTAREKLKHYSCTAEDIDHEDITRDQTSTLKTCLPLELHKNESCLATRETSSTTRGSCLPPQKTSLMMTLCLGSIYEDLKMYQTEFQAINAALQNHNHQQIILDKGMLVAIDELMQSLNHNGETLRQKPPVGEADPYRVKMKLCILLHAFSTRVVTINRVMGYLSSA
# Sequence of murine IL-12 (mouse) (P43432 23-335, chain 2 of 2, further chain): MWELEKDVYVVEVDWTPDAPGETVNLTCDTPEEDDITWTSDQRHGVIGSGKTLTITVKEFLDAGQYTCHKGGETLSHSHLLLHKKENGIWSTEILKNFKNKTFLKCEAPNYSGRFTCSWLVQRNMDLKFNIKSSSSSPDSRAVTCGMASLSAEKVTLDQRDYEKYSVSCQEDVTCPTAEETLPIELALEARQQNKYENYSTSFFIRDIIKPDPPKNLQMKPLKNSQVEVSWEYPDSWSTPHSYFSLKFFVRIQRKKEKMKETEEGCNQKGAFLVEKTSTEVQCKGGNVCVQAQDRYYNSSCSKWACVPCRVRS
# Sequence of Rhesus IL-12 (rhesus monkey) (P48091 23-219, chain 1 of 2): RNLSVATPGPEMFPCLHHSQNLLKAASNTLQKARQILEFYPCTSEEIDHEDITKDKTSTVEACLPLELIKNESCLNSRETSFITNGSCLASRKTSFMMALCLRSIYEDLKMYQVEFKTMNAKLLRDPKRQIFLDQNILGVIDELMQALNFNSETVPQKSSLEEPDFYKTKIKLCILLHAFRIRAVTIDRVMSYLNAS
# Sequence of Rhesus IL-12 (rhesus monkey) (P48095 23-328, chain 2 of 2, further chain): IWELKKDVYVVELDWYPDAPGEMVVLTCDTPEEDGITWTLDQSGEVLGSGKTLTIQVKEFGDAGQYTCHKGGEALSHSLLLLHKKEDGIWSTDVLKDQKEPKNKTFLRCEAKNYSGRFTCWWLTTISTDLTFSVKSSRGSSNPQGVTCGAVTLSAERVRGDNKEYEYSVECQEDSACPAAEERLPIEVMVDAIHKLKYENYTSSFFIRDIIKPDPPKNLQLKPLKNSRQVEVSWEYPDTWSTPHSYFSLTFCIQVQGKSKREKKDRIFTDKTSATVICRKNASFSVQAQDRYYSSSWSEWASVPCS
Substance,"IC50 (M), species cross reactivity bioassay (murine IL-12 (mouse)) [M]",PHA blast Assay IC50 (murine IL-12 (mouse)) [pM],"IC50 (M), species cross reactivity bioassay (Baboon IL-12 (baboon)) [M]","IC50 (M), species cross reactivity bioassay [1] [M]","IC50 (M), species cross reactivity bioassay [2] [M]","IC50 (M), species cross reactivity bioassay [3] [M]"
C17.15 (antibody),3e-11,14,–,–,–,–
C8.6.2 (antibody),–,–,2e-10,1.2e-10,1e-10,5e-11

# — patent publication EP2168984B1
